Laboratory results from patent US20250326867A1, “De novo designed chlorophyll special pair proteins” (University of Washington, priority 2024, published 2025).

B1: SP3x (designed binder)
chain: SGSSEELARESAEAAWRLAQASTRATLAMIRGDLKELAEALIELARAVQELARVAKEYGNDELAKTAALLAAHVAMLAIWVLIRAIKEGDDEVRELAKTAIKLASTAAKIVLDALPTAEEVRQITLLAKLAEEAADKKNEDSALAVGIAAIAVIIALWALEAAQKAGIEEAEKGARLLLKLAMDAARKKNPEEALAVLNAALDVSIALQLLQSAKRAGSEETRKLAEEMLRQALERARKKN
notes: Designed homodimer subunit, after TEV cleavage
B2: tj79C2-H69A (designed binder)
chain: SGSGSREDELQARLQLLAAELAAEEADIAAERTGDPRVRELARELKRLAQEAAEEVKRDPSSSDVNAALVLITHAIMLAVEALKAAERTGDPEVRELARELVRLAVEAAEEVQRNPSSSDVNKALFLIMMAIITAVTALEAAERTGDPEVRELARELVRLAVEAAEEVQRNPSSKEVDMALLLILIAILEAVLSLLRAERSGDPEKREKARERVREAVERAEEVQRDPSGW
notes: as for B1
B3: SP3 (designed binder)
chain: SGSSEELARESAEAAWRLAQAGTRLMLAWIRGDLKEIAEALIELARAVQELARVAKEYGNDELAKTAALLAAHVAMLAILVLIRAIKEGDDEVRELAKTAIKLASTAAKIVLDALPTAEEVRQITLLAKLAEEAADKKNEDSALAVGIAAAAVLLALLALEAAQKAGIEEAEKGARLLLKLAMDAARKKNPEEALAVFNAALDVSIALKLLQSAKRAGSEETRKLAEEMLRQALERARK
notes: as for B1
B4: JIa (designed binder)
chain: SGSSEELARESAEAAWRLAQAGTRAALAAIRGDLKELAEALIELARAVQELARVAKEYGNDELAKTAALLAAHVALLAILVLIRAIKEGDDEVRELAKTAIKLASTAAKIVLDALPTAEEVRQITLLAKLAEEAADKKNEDSALAVGIAAAAVLAALLALEAAQKAGIEEAEKGARLLLKLAMDAARKKNPEEALAVLNAALDVSIALRLLQSAKRAGSEETRKLAEEMLRQALERARK
notes: as for B1
B5: JIc (designed binder)
chain: SGSSEELARESAEAAWRLAQAATRLVLALIRGDLKEVAEALIELARAVQELARVAKEYGNDELAKTAAWLAAHVAMLAIYVLIRAIKEGDDEVRELAKTAIKLASTAAKIVLDALPTAEEVRQITLLAKLAEEAADKKNEDSALAVGIAAIAVLIALLALEAAQKAGIEEAEKGARLLLKLAMDAARKKNPEEALAVLNAALDVSIALRLLQSAKRAGSEETRKLAEEMLRQALERARK
notes: as for B1
B6: D13_H60A (designed binder)
chain: SGSGSEEKEWMLLTAMLIMAIKTLKEMLEEDPNDEEIKKILELLWQISKTQQDDPHNEEQKEWLHLLLIIIMALRLVQEMLKEDPNDEEIEKILELLKQILRTLREDPHNEEQKEWLILLFIIIALLDSVQEMLKEDPNDEEIEKILELLKQILRTLREDPHNEEQKQWLIQLINALILLLFIQEKLKEDPNDEEAEEELERLKEQLRRLRE
notes: as for B1
B7: D13_H60B (designed binder)
chain: SGSGSEEKEWQLLTWLLIMIIKTLKEMLEEDPNDEEIKKILELLWQISKTQQDDPHNEEQKEWLHLLAAIILALRLVQEMLKEDPNDEEIEKILELLKQILRTLREDPHNEEQKAWLLLLVIIIALLDSVQEMLKEDPNDEEIEKILELLKQILRTLREDPHNEEQKQWLIQLINALILLLFIQEKLKEDPNDEEAEEELERLKEQLRRLRE
notes: as for B1
B8: tj79C2-H121A (designed binder)
chain: SGSGSREDELIARYQILLAELAAERADIAAERTGDPRVRELARELKRLAQEAAEEVKRDPSSSDVNMALLLILLMIELAVRALEAAERTGDPEVRELARELVRLAVEAAEEVQRNPSSSDVWQALHLIMLAIWAAVAALEAAERTGDPEVRELARELVRLAVEAAEEVQRNPSSKEVYMALLLILIAILEAVLSLLRAERSGDPEKREKARERVREAVERAEEVQRDPSGW
notes: as for B1
B9: tj79C2-H132A (designed binder)
chain: SGSGSREDELRARLLILLAELAAETLDIIAERTGDPRVRELARELIRLLQEAAEEVKRDPSSSDVNEALKLIVEAIFMAIFILLFAEQTGDPEVRELARELVRLAVEAAEEVQRNPSSSDVNEALKLIIQAIILAVHALLAAEKTGDPEVRELARELVRLAVEAAEEVQRNPSSKEVDMALLLILIAILEAVLSLLRAQRSGDPEKREKARERVREAVERAEEVQRDPSGW
notes: as for B1
B10: tj79C2-H121B (designed binder)
chain: SGSGSREDELLARLLLLLAELAAERADIAAERTGDPRVRELARELKRLAQEAAEEVKRDPSSSDVLMALLLIIMAIEAAVEALEAAERTGDPEVRELARELVRLAVEAAEEVQRNPSSSDVWWALHLILFAIQLAVRALEAAERTGDPEVRELARELVRLAVEAAEEVQRNPSSKEVDMALLLILIAILEAVLSLLRAERSGDPEKREKARERVREAVERAEEVQRDPSGW
notes: as for B1
B11: tj79C2-H121C (designed binder)
chain: SGSGSREDELLARLLILLAELAAERADIAAERTGDPRVRELARELKRLAQEAAEEVKRDPSSSDVLMLLLLIVLAIQAAVEALEAAERTGDPEVRELARELVRLAVEAAEEVQRNPSSSDVFMALHLILFAIQLAVQALEAAERTGDPEVRELARELVRLAVEAAEELQRNPSSKEVQMALLLILIAILEAVLSLLRAERSGDPEKREKARERVREAVERAEEVQRDPSGW
notes: as for B1
B12: D13_H11A (designed binder)
chain: SGSGSEEKEWQAMTLHLIFAIKILKEMLEEDPNDEEIKKILELLWQISKTQQDDPHNEEQKEWLMLLLLIIMALRLVQEMLKEDPNDEEIEKILELLKQILRTLREDPHNEEQKEWLILLLIIILLLDSVQEMLKEDPNDEEIEKILELLKQILRTLREDPHNEEQKQWLIQLINALILLLFIQEKLKEDPNDEEAEEELERLKEQLRRLRE
notes: as for B1
B13: D13_H11B (designed binder)
chain: SGSGSEEKEWQAMTAHLIYAIKILKEMLEEDPNDEEIKKILELLWQISKTQQDDPHNEEQKEWLILLLIIILALRLVQEMLKEDPNDEEIEKILELLKQILRTLREDPHNEEQKEWLSLLFIIIALLDSVQEMLKEDPNDEEIEKILELLKQILRTLREDPHNEEQKQWLIQLINALILLLFIQEKLKEDPNDEEAEEELERLKEQLRRLRE
notes: as for B1
B14: D13_H11C (designed binder)
chain: SGSGSEEKEWAIMTAHLIYAIKVLKEMLEEDPNDEEIKKILELLWQISKTQQDDPHNEEQKEWLMLLLGIILALRLVQEMLKEDPNDEEIEKILELLKQILRTLREDPHNEEQKEWLALLVIIILLLDSVQEMLKEDPNDEEIEKILELLKQILRTLREDPHNEEQKQWLIQLINALILLLFIQEKLKEDPNDEEAEEELERLKEQLRRLRE
notes: as for B1
B15: tj79C2-H125A (designed binder)
chain: SGSGSREDELWARYTLLLAELAAERADIAAERTGDPRVRELARELKRLAQEAAEEVKRDPSSSDVYLALILIVMAIYMAVLALEAAERTGDPEVRELARELVRLAVEAAEEVQRNPSSSDVNKALLLIVHAIMAAVAALEAAERTGDPEVRELARELVRLAVEAAEEVQRNPSSKEVDMALLLIQIAILEAVLSLLRAERSGDPEKREKARERVREAVERAEEVQRDPSGW
notes: as for B1
B16: tj79C2-H69B (designed binder)
chain: SGSGSREDELHARYLILSAELAAERADIAAERTGDPRVRELARELKRLAQEAAEEVKRDPSSSDVNKALLLITHAILIAVAALEAAERTGDPEVRELARELVRLAVEAAEEVQRNPSSSDVNRALFLIMMAIMMAVKALEAAERTGDPEVRELARELVRLAVEAAEEVQRNPSSKEVDMALLLILIAILEAVLSLLRAERSGDPEKREKARERVREAVERAEEVQRDPSGW
notes: as for B1

Target: the molecule itself
Experiment: size-exclusion chromatography, self-association (homodimer)
Method: FIG. 7. Size exclusion chromatography (SEC) traces of purified SP apo-proteins. Proteins were injected as 0.5 mL aliquots onto a Superdex™ 200 Increase 10/300 GL column (Cytiva Life Sciences). The narrow, isolated peaks indicate that the samples contain monodisperse protein. Running buffer was 150 mM NaCl, 10 mM Tris at pH 8. Proteins were purified by Ni-NTA and one round of SEC prior to collecting the data shown.
Proteins were purified by Ni-NTA and size-exclusion chromatography (SEC) (FIG. 7). […] A slightly lower predicted radius of gyration (Rg) value compared to experimental SAXS data is likely due to a dense hydration shell around the highly charged SP proteins (Svergun et al. 1998; Kim et al. 2016). The far ultraviolet (UV) circular dichroism (CD) spectra of three SP proteins that expressed in high yield (≥140 mg/L) show the proteins are highly α-helical with and without the synthetic Chl a derivative, Zn pheophorbide a methyl ester (ZnPPaM). Thermal denaturation curves monitored by the CD signal at 222 nm indicate that all three proteins are highly thermostable in the apo- and holo-states (FIG. 2).

Protein | binding result
B1 | binds
B2 | binds
B3 | binds
B4 | binds
B5 | binds
B6 | binds
B7 | binds
B8 | binds
B9 | binds
B10 | binds
B11 | binds
B12 | binds
B13 | binds
B14 | binds
B15 | binds
B16 | binds
